Source: article doi:10.64898/2025.12.30.697126

Biological target: SUMO-SRCAP_(521-569) (human)
Assay: ITC

Sequence of SUMO-SRCAP_(521-569) (human) (Q6ZRS2 521-569): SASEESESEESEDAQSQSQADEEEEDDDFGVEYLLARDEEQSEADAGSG

H2A.Z/H2B dimer, wild type (from UniProt P0C0S5 1-128; P06899 1-126) (complex)
Kd: 256 nM
